Experimental data taken from the supplement of paper PMC7125110.
± gives the standard error. For some assays here: Variants at the floor of the assay were thinned out.

B1: glmS ribozyme (parent)
chain: AUAAAAGCGCCAGAACUACAGAAAUGUAGUUGACGAGGAGGAGGUUUAUCGAAUUUUCGGCGGAUGCCUCCAAA

Key:
Conditions in all cases: with glucosamine-6-phosphate
[1] = variants of: B1; assay: kcat; higher = faster cleavage; RNA array
How it was run: (§1)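 Barcoded ribozyme variants were transcribed in situ on sequenced MiSeq chips by E. coli RNA polymerase. At 37 °C, a hybridised Cy3 probe tracked them while glucosamine-6-phosphate (40 μM to 10 mM) in HEPES/KCl/Mg(OAc)2 buffer flowed in and tiles were imaged over ~14 h. Per-tile medians of signals normalised to baseline and to non-cleaving reference variants were fit to one- or two-exponential decays, giving kobs. kcat and KM came from weighted Michaelis–Menten fits across concentrations.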

[2] = variants of: B1; assay: self-cleavage kobs at 40 uM GlcN6P; higher = faster cleavage; RNA array
How it was run: as §1

[3] = variants of: B1; assay: self-cleavage kobs at 160 uM GlcN6P; higher = faster cleavage; RNA array
How it was run: as §1

[4] = variants of: B1; assay: self-cleavage kobs at 2500 uM GlcN6P; higher = faster cleavage; RNA array
How it was run: as §1

[5] = variants of: B1; assay: self-cleavage kobs at 10000 uM GlcN6P; higher = faster cleavage; RNA array
How it was run: as §1

[6] = variants of: B1; assay: self-cleavage kobs at 640 uM GlcN6P; higher = faster cleavage; RNA array
How it was run: as §1

[7] = variants of: B1; assay: KM; higher = weaker cofactor use; RNA array
How it was run: as §1

Row | Variant | kcat [1] | self-cleavage kobs at 40 uM GlcN6P [2] | self-cleavage kobs at 160 uM GlcN6P [3] | self-cleavage kobs at 2500 uM GlcN6P [4] | self-cleavage kobs at 10000 uM GlcN6P [5] | self-cleavage kobs at 640 uM GlcN6P [6] | KM [7]
1 | AUAAAAGCGCCAGAACUACAGAAAUGUAGUUGUCGAGGAGGAGGUUUAUUGAAUUUUCGGCGGAUGCCUCCAAA [A33U C50U] | < 1e-05 s⁻¹ | < 1e-05 s⁻¹ | < 1e-05 s⁻¹ | < 1e-05 s⁻¹ | < 1e-05 s⁻¹ |  | 
2 | AUAAAAGCGCCAGAACUACAGAAAUGUAGUUGACCAGGAGGAGGUUUAUCGGAUUUUCGGCGGAUGCCUCCAAA [G35C A52G] | < 1e-05 s⁻¹ |  | < 1e-05 s⁻¹ |  | < 1e-05 s⁻¹ | < 1e-05 s⁻¹ | 
3 | AUAAAAGCGCCAGAACUACAGAAAUGUAGUUGGCGAGGAGGAGGUUUAUCGAAUUUUCGGCGGAUGCCUGCAAA [A33G C70G] | 1.95e-05 ± 6.8e-06 s⁻¹ |  |  |  |  |  | 
4 | AUAAAAGCGCCAGAACUACAGAAAUGUAGUUGACAAGGAGGAGGUUUACCGAAUUUUCGGCGGAUGCCUCCAAA [G35A U49C] | < 1e-05 s⁻¹ |  |  |  | < 1e-05 s⁻¹ | < 1e-05 s⁻¹ | 
5 | AUAAAAGCGCCAGAACUACAGAAAUGUAGUUGGCAAAGAGGAGGUUUAUCGAAUUUUCGGCGGAUGCCUCUAAA [A33G G35A G37A C71U] | 1.55e-05 ± 4.5e-06 s⁻¹ |  |  |  |  |  | 
6 | AUAAAAGCGCCAGAACUACAGAAAUGUAGUUGAGGAGUAGGAGGUUUAUCGAAUUUUCGGCGGAUGCCUCCAAA [C34G G38U] | < 1e-05 s⁻¹ |  | < 1e-05 s⁻¹ |  |  |  | 
7 | AUAAAAGCGCCAGAACUACAGAAAUGUAGUUGAAGAGGAGGAGGUUUAUCGAAUUGUCGGCGGAUGCCUCCAAA [C34A U56G] | < 1e-05 s⁻¹ | < 1e-05 s⁻¹ | < 1e-05 s⁻¹ | < 1e-05 s⁻¹ |  | < 1e-05 s⁻¹ | 31 ± 12 µM
8 | AUAAAAGCGCCAGAACUACAGAAAUGUAGUUGUCGAGGAGGAGGUUUAUCAAAUUUUCGGCGGAUGCCUCCAAA [A33U G51A] | < 1e-05 s⁻¹ | < 1e-05 s⁻¹ |  |  |  |  | 394 ± 130 µM
9 | AUAAAAGCGCCAGAACUACAGAAAUGUAGUUGAGGAGGAGGAGGUUUAUCGAAUUUUCGGCGGAUGCCUACAAA [C34G C70A] | 1.99e-05 ± 6.8e-06 s⁻¹ |  |  |  |  |  | 
10 | AUAAAAGCGCCAGAACUACAGAAAUGUAGUUGGCGAGGAGGAGGUUUAUAGAAUUUUCGGCGGAUGCCUCCAAA [A33G C50A] | 1.1e-05 ± 2.3e-06 s⁻¹ |  |  |  |  |  | 
11 | AUAAAAGCGCCAGAACUACAGAAAUGUAGUUGAUGAGGAGGAGGUUUAUCGAAUUUUCGGCGCAUGCCUCCAAA [C34U G63C] | < 1e-05 s⁻¹ |  |  | < 1e-05 s⁻¹ |  | < 1e-05 s⁻¹ | 
12 | AUAAAAGCGCCAGAACUACAGAAAUGUAGUUGAAGCGGAGGAGGAUUAUCGAAUUUUCGGCGGAUGCCUCCAAA [C34A A36C U45A] | < 1e-05 s⁻¹ | < 1e-05 s⁻¹ | < 1e-05 s⁻¹ |  |  |  | 
13 | AUAAAAGCGCCAGAACUACAGAAAUGUAGUUGUCGAUGAGGAGGUUUAUCGAAUUUUCGGCGGAUGCCUCCAAA [A33U G37U] | < 1e-05 s⁻¹ |  | < 1e-05 s⁻¹ |  |  |  | 
14 | AUAAAAGCGCCAGAACUACAGAAAUGUAGUUGACCAGGAGGAGGUUUAUCGAAUUUUCGGCGGAUGCUUCCAAA [G35C C68U] | < 1e-05 s⁻¹ | < 1e-05 s⁻¹ | < 1e-05 s⁻¹ |  |  |  | 
